# Results taken from patent US7998688B2, “Inhibition of EMT induction in tumor cells by anti-cancer agents” (OSI Pharmaceuticals, LLC, priority 2008, dated 2011).
# Where two headings read alike, the source gives them in different places.
# B1: TGFβ3: Human recombinant mature TGF-beta3 prepared and purified at OSI Pharmaceuticals; EMT inducer (protein, UniProt P10600 301-412, looked up)
# Transforming growth factor …: ALDTNYCFRNLEENCCVRPLYIDFRQDLGWKWVHEPKGYYANFCSGPCPYLRSADTTHSTVLGLYNTLNPEASASPCCVPQDLEPLTILYYVGRTPKVEQLSNMVVKSCKCS
# modifications: Transforming growth factor beta-3
# notes: Human recombinant mature TGF-beta3 prepared and purified at OSI Pharmaceuticals; EMT inducer
# Tests used:
# [1] = phase III, monotherapy, patients with advanced, treatment-refractory NSCLC; cited from earlier work
# [2] = phase III, first-line, in combination with gemcitabine, pancreatic cancer; cited from earlier work
# [3] = test system: H358 NSCLC cells; assay: TGFβ3 induction of EMT in H358 NSCLC cells (western blot); type: cell-based, human; settings: TGFβ3 1 nM, 7 days (FIG. 1)
# Description: FIG. 1: TGFβ3 induces EMT in H358 NSCLC cells. H358 cells were treated with TGFβ3 (1 nM, 7 days) in the presence or absence of the TGFβ receptor kinase inhibitor SB43 1542. Protein extracts were analyzed by western blot using the indicated antibodies.
# Western blot analysis: For western blot analysis in H358 cells, cells were harvested 72 hrs after the addition of TGFβ3 addition (5 and 3 days after first and second siRNA transfections). For western blot analysis in HCT116/tet-on/Snail-Flag cells, cells were harvested 24 hours after Dox addition. […] Cell lysates were cleared of insoluble material by centrifugation at 15,000×g for 5 minutes at 4° C. Protein concentrations were measured in the resultant supernatant using the BCA protein analysis kit ([…].; 23225). 15 ug total lysate was used for SDS-PAGE followed by immunoblotting with the appropriate antibodies. The following antibodies were used: E-cadherin (Cell Signaling, Beverly, Mass.; 3195), vimentin (BD Biosciences, San Jose, Calif.; 550513), ErbB3 (Santa Cruz Biotechnology, Santa Cruz, Calif.; sc285), PAK1 (Cell Signaling, 2062), PAK2 (Cell Signaling, 2068), Flag (Sigma, F3165), ZEB1 (Santa Cruz, sc25388), N-Cadherin (Santa Cruz, sc7939), Fibronection (BD, 610078), β-action (Sigma, A1978).
# [4] = test system: H358 cells; assay: TaqMan quantitative RT-PCR of ZEB1 and Snail mRNA in TGFβ3-treated H358 cells; type: cell-based, human; settings: H358 cells without PAK knockdown, 72 h post-TGFβ3, TaqMan (FIG. 4)
# Description: siRNA knockdown and TGFβ3 treatment: For PAK1 and PAK2 siRNA knockdown in H358 cells, cells were seeded at a density of 5×10^4 cells/well in 6-well dishes. Next day, the cells were transfected using Lipofectamine 2000 (Invitrogen, 11668-019) with 62.5 nM PAK1 (Invitrogen; validated stealth siRNAduplex2, 12936-54) 62.5 nM PAK2 (Invitrogen; validated stealth siRNA duplex 1, 12936-55), 62.5 nM PAK1 & 62.5 nM PAK2 siRNA, or 62.5 nM negative control (Invitrogen, 12935-300) according to the manufacturer's instructions. Transfection reagent was replaced 4 hours post transfection with fresh media. The cells were re-transfected as above 48 hrs after initial transfection. 4 hours post-transfection, the transfection reagent was replaced with fresh media plus or minus 10 nM TGFβ3.
# RNA isolation and TaqMan analysis: For TaqMan analysis, total RNA was isolated 72 hours after TGFβ3 treatment of H358 cells (5 and 3 days after first and second siRNA transfections). SuperArray's (SuperArray Bioscience Corp. Frederick, Md. 21704, USA) Total RNA Isolation Kit (GA-013) was used. Subsequently first strand cDNAs were made using RT PCR Array First Strand Kit (SuperArray; C-02). Quantitative-RT-PCR analyses were performed using Taqman Gene Expression Assays (Applied Biosystems, Foster City, Calif.) for PAK1, PAK2, Zeb1, and Snail.
Molecule,disease progression [1],survival [1],worsening of lung cancer-related symptoms [1],survival [2],expression of epithelial markers (E-cadherin and ErbB3) [3],"expression of mesenchymal markers (vimentin, N-cadherin, and fibronectin) [3]",protein levels of the EMT driver ZEB1 [3],Snail mRNA induction by TGFβ3 [4] [fold],ZEB1 mRNA induction by TGFβ3 [4] [fold]
"C#Cc1cccc(Nc2ncnc3cc(OCCOC)c(OCCOC)cc23)c1 [erlotinib, [6,7-bis(2-methoxyethoxy)-4-quinazolin-4-yl]-(3-ethynylphenyl) amine]",delayed disease progression,significantly prolonged survival,delayed worsening of lung cancer-related symptoms,improves survival,–,–,–,–,–
B1,–,–,–,–,downregulating the expression of epithelial markers (E-cadherin and ErbB3),"upregulating that of mesenchymal markers (vimentin, N-cadherin, and fibronectin)",increase in the protein levels of the EMT driver ZEB1,~2.8,6
